Source: publication PMC4058522 (2014)
Square brackets hold non-standard residues; d marks the D form. Ends that are not written are not given here. pS = N[C@@H](COP(=O)(O)O)C(=O)O

Target: mouse Pih1 PIH domain Lys 153 charge reversal mutant (mouse, UniProt Q9CQJ2 1-200, Charge reversal of a conserved residue Lys 153)
Experiment: ITC

mouse Pih1 PIH domain Lys 153 charge reversal mutant, sequence (Q9CQJ2 other isoform, or with tags, fused parts or gaps Charge reversal of a conserved residue Lys 153 | mutant): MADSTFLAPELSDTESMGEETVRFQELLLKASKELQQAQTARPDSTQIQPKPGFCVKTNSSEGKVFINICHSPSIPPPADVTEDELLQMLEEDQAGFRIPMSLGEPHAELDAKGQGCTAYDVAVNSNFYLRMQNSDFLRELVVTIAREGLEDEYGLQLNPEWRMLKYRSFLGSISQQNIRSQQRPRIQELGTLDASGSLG

Binder: QGSD[pS]ELD[pS]DDEF [mouse Tel2 484-496 peptide, bis-phosphorylated pSer 488 and pSer 492 (QGSDpSELDpSDDEF)]
- Kd: 220 nM
